Data as given in patent US20050197296A1, “Agents for preventing and treating thrombocytopenia” (CHUGAI SEIYAKU KABUSHIKI KAISHA, priority 1996, published 2005).

What was measured:
[1] = tested on: platelet count; experiment: Test for daily administration to mouse (platelet increasing action); format: in vivo, C57B1/6N mice; details: subcutaneous once a day
Experimental: Nine-week old male C57B1/6N mice as purchased from Japan Charles River Co., Ltd. were used in the experiment.
Drug solutions to be administered were prepared basically by the same procedure as in Example 1 to give drug concentrations of 5, 20 and 80 μg/mL.
The mice under test were divided into four groups, which were administered subcutaneously with the three drug solutions and a control (citrate buffer) once a day in a volume of 10 mL/kg. […] The administration was initiated at 10 a.m.
On days 5, 7 and 9 after the start of administration, five or six mice were picked up at random from each group of animals and blood samples were withdrawn through the orbital vein. The sampling of blood was timed to occur 24 h of the final administration. Separate blood samples were taken from untreated mice (five in number) to obtain the value for normal mouse. Peripheral corpuscle counts were obtained with an automatic corpuscle counter F-800(TOA MEDICAL ELECTRONICS CO., LTD.).

[2] = tested on: platelet count; experiment: Test for daily administration to rabbit (platelet increasing action); format: in vivo, Japanese albino rabbits JW/CSK; details: 200 μg/kg subcutaneous daily
Experimental: Six 12-15 week old male Japanese albino rabbits JW/CSK were used in the experiment. The animals were individually kept in aluminum rabbit bracket cages Rb-1 (350^w×500^d×350^h mm) in a vavarium in a specific pathogen-free environment under the following conditions: temperature, 24±2° C.; humidity, 50±10%; illumination, light turned on at 5:00 and turned off at 19:00; ventilation, 15 changes/hr. Each animal was supplied with 120 g of a radiation-sterilized feed for rabbits RM (purchased from Funahashi Farm) per day. The animals were also allowed to drink to tap water ad libitum from an automatic water feeder.
Human PTH(1-84) was administered in a volume of 2 mL/vial at a concentration of 200 μg/mL. A solvent was also supplied in a volume of 2 mL/vial. Both the drug and the control were stored at −135° C. until use.
PTH (200 μg/kg) was administered to the rabbits subcutaneously at the back of their neck for 13 consecutive days. The solvent was similarly administered in the same volume as the dose of a rh-PTH solution calculated from their body weight.
Blood samples (0.5 mL) were withdrawn from the rabbits through the lateral auricular vein before the administration and on days 2, 6, 9 and 13 during the administration period. […]

[3] = tested on: platelet counts; experiment: Test for single-dose administration to mouse (platelet increasing action); format: in vivo, C57B1/6N mice; details: single dose 10 μg/kg through the tail vein, 6 and 9 h after the administration
Experimental: Nine-week old male C57B1/6N mice as purchased from Japan Charles River Co. Ltd. were used in the experiment.
Human PTH(1-84) was dissolved in a citrate buffer (pH 5; containing 0.05% of Tween 80) at final concentrations of 1, 0.2 and 0.04 ˜g/mL so as to prepare the drug solutions to be administered.
Each of the thus prepared drug solutions and a control (citrate buffer) was administered to 15 mice through the tail vein in a volume of 10 mL/kg. […] The administration was initiated at 10 a.m.
After 3, 6 and 9 hours of the administration, five mice were picked up at random from each group of animals and blood samples were withdrawn through the orbital vein. At 10 a.m. on the same day, separate blood samples were taken from untreated mice (four in number) to obtain the preadministration value. Peripheral corpuscle counts were obtained with an automatic corpuscle counter F-800 (TOA MEDICAL ELECTRONICS CO., LTD

[4] = tested on: platelet count; experiment: Effectiveness of PTH derivative, daily administration to mouse; format: in vivo, C57B1/6N mice; details: 200 μg/kg subcutaneous once a day for six days, blood 24 h after final administration
Experimental: Ten-week old male C57B1/6N mice as purchased from Japan Charles River Co., Ltd. were used in the experiment.
Drug solutions to be administered were prepared basically from human PTH(1-84) and human PTH(1-34) by the same procedure as in Example 1 to give a drug concentration of 20 μg/mL.
Eighteen mice were divided into three groups, which were administered subcutaneously with the two drug solutions and a control (citrate buffer) for six days on a once-a-day basis in a volume of 10 mL/kg. […] The administration was initiated at 10 a.m.
After 24 h of the final administration, a blood sample was withdrawn from each mouse through the orbital vein. Peripheral corpuscle counts were obtained with an automatic corpuscle counter F-800 (TOA MEDICAL ELECTRONICS CO., LTD).

[5] = tested on: BFU-E (precursor cells of erythrocytes); details: literature report, J. Clin. Invest. Vol. 67, 1263-1269:1981; cited from earlier work
[6] = tested on: CFU-GM (precursor cells of granulocytes and macrophages); details: literature report, J. Clin. Invest. Vol. 67, 1263-1269:1981; cited from earlier work

| Molecule | platelet count ([1]; 200 and 800 μg/kg, day 5) | platelet count versus control ([1]; all treated groups (50, 200 and 800 μg/kg), day 7) | platelet count relative to the initial value ([2]; day 2 until day 6) | platelet count relative to the initial level ([2]; day 13) | platelet counts versus control [3] | platelet increasing action [4] | in vitro colony formation by BFU-E [5] | in vitro colony formation by CFU-GM [6] |
| --- | --- | --- | --- | --- | --- | --- | --- | --- |
| human PTH(1-84) (protein, UniProt P01270 32-115, looked up, Parathyroid hormone) Parathyroid hormone: SVSEIQLMHNLGKHLNSMERVEWLRKKLQDVHNFVALGAPLAPRDAGSQRPRKKEDNVLVESHEKSLGEADKADVNVLTKAKSQ | tendency to increase | significantly higher in platelet count than the control | two to four times as great as the initial value | substantially returned to the initial level | significant increase in platelet counts over the control | platelet increasing action |  |  |
| parathyroid hormone (PTH): PTH as studied in the literature report by Meytes et al; form and species not printed (protein, UniProt P01270 32-115, looked up, Parathyroid hormone) Parathyroid hormone: SVSEIQLMHNLGKHLNSMERVEWLRKKLQDVHNFVALGAPLAPRDAGSQRPRKKEDNVLVESHEKSLGEADKADVNVLTKAKSQ |  |  |  |  |  |  | interfered with the in vitro colony formation | interfered with the in vitro colony formation |
